Test results as given in US20210147523A1 (TEIJIN PHARMA, published 2021).
Substitutions are numbered along the chain they refer to.

Tests used:
[1] = target: T1, human SPNS2 G134A mutant (human, UniProt Q8IVW8 1-549); experiment: flow cytometry
T1 sequence: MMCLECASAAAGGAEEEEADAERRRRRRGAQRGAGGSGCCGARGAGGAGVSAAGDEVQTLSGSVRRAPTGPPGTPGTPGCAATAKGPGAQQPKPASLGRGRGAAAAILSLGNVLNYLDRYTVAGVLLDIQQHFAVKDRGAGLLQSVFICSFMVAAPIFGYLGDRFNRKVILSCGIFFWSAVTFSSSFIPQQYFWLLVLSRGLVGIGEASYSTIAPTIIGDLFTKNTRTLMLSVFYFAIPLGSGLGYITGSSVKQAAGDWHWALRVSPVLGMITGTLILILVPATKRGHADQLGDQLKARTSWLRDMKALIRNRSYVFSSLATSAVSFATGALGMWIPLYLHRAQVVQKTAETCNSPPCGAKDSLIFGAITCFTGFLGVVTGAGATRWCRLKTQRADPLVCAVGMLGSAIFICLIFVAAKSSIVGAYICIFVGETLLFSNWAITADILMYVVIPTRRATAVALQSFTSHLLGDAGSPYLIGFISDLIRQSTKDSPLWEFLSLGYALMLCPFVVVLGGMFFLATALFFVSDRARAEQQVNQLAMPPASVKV

[2] = target: T2, human SPNS2 I129A mutant (human, UniProt Q8IVW8 1-549); experiment: flow cytometry
T2 sequence: T1 sequence with I129A, A134G

B1: 64-0807A (antibody, IgG2b, V domains shown)
VH: EVQVVESGGGLVQPGRSMKLSCAALGFTFRDYYMAWVRQTPTKGLEWVAAISTGGGNTYYRDSVKGRFTISRDNAKSTLYLQMDSLRSDDTATYYCARNPYGNYFDYWGQGVMVTVSS
VL: QFVLSQPNSVSTNLGSTVKLSCKRSTGNIGSNYVHWYQRHEGRSPTTLIYRDDKRPNGVPDRFSGSIDRSSNSALLTINNVQTEDEADYFCQSYSGGMYLFGGGTKLTVL
With B1 the “binding ratio vs native type” value [1] was under 0.5 ratio.

B2: 65-0810G (antibody, IgG2b, V domains shown)
VH: EVHLVESGGGLVQPGRSMKLSCTASGFTFNNYYMAWVRQAPTKGLEWVASISTGGGYTYYRDSVKGRFTISRDNTGNTLYLQMDSLRSEDTATYYCARCWELPYWGQGVMVTVSS
VL: QFVLTQPNSVSTNLGSTVKLSCRRSSGNIGNNYVNWYRQHEGRSPTTMIYRDDTRPDGVPNRFSGSIDRSSNSALLTINNVRPEDEAYYFCQSYSGSIYIFGGGTKLTVL
With B2 the “binding ratio vs native type” value [2] was under 0.5 ratio.
